Tests used:
[1] = target: human angiotensin-converting enzyme 2 ectodomain (human) (UniProt Q9BYF1); experiment: SPR
[2] = target: Rhinolophus affinis angiotensin-converting enzyme 2 ectodomain (Rhinolophus affinis); experiment: SPR

UniProt Q9BYF1, sequence (Q9BYF1 19-615): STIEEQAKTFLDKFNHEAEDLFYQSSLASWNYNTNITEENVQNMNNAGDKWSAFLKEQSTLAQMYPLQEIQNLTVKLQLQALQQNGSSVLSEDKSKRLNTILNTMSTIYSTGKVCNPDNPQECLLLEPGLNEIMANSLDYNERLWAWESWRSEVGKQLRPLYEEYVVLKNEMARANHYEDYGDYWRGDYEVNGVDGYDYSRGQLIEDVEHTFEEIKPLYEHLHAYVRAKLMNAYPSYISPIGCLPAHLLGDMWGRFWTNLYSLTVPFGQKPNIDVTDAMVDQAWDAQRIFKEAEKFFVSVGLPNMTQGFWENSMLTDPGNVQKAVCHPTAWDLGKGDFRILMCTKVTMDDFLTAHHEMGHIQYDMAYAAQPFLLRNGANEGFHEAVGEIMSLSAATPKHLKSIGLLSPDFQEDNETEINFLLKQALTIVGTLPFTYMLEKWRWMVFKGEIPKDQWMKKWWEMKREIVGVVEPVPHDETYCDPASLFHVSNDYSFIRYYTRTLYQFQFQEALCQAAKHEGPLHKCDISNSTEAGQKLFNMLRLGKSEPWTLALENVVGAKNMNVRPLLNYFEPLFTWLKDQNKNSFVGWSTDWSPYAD

RaTG13 spike receptor binding domain (domain or fragment)
Kd [1]: 21 nM
Kd [2]: 12 nM

Reference: doi:10.1101/2021.08.11.455960
